US20230312724A1 (KADMON, published 2023)

Key:
human B7-H4-Fc [1] = biological target: T1, human B7-H4-Fc (human); test: SPR (Biacore)
T1 construct: also called hB7-H4-Fc; hB7-H4 Fc
Method in brief: (§1)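 Ligands (human B7-H4-Fc, human B7-H4-his, mouse B7-H4-Fc) were amine-coupled to CM5 chips at 50-100 RU. Analyte was injected at 100 nM to 0.1 nM in HBS-EP, pH 7.4, at 25 °C, with 180 s association and 1000 or 1200 s dissociation. Kinetics were fitted to a 1:1 Langmuir model.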

human B7-H4-his = biological target: T2, human B7-H4-his (human, UniProt Q7Z7D3 25-259); test: SPR (Biacore)
T2 construct: also called hB7-H4-his; hB7-H4 his; not shown: his tag
T2 sequence: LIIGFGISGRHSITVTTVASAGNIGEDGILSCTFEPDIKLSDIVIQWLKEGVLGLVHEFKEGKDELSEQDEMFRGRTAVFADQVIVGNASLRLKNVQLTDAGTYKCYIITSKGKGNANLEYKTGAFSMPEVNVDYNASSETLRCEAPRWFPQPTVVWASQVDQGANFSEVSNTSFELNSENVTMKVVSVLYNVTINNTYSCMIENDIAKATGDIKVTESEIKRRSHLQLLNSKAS
Method in brief: as §1

mouse B7-H4-Fc [2] = biological target: T3, mouse B7-H4-Fc (mouse; human); test: SPR (Biacore)
T3 construct: also called mB7-H4-Fc; mB7-H4-hFc
Method in brief: as §1

[3] = biological target: T4, hB7-H4 (soluble human B7-H4, construct not named) (human, UniProt Q7Z7D3 25-259, limits assumed); test: ELISA, hB7-H4
T4 construct: also called soluble hB7-H4
T4 sequence: T2 sequence
Method in brief: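 OD450 was plotted against antibody concentration to derive EC50. Plates carried ~1-2 μg/ml human or mouse B7-H4-Fc (or his-tagged) coated overnight at 4° C; antibodies in serial dilution incubated 1-1.5 h at RT, with HRP-anti-hFab/TMB detection.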

[4] = biological target: T4, hB7-H4 (soluble human B7-H4, construct …); test: SPR (Biacore)
[5] = biological target: T5, mB7-H4 (soluble mouse B7-H4, construct not named) (mouse, UniProt Q7TSP5 25-257, limits assumed); test: ELISA, mB7-H4
T5 sequence: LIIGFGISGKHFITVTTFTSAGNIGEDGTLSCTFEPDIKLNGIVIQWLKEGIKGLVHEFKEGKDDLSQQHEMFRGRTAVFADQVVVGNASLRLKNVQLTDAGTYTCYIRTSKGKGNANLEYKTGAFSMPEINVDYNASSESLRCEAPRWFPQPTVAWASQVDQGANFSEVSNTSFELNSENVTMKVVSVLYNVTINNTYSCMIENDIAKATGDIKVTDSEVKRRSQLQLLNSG
Description: (§2) About 1-2 μg/ml of human or mouse B7-H4-Fc (or his-tagged) was immobilized on ELISA plates (Immuno 2HB, Thermo scientific, cat #3455) at 4° C. overnight. After blocking the plates with 3% PBS+milk, serial diluted antibodies were added to the blocked plates and incubated at RT for 1-1.5 h. After washing the plates with PBS-T (0.05%), horse radish peroxidase (HRP)-conjugated antibody targeting the hFab was added to the plate. Signals were developed by adding 3,3′,5,5′-Tetramethylbenzidine (TMB (followed 1N of H₂SO₄ to stop the reaction. The OD at 450 nm was read by ELISA plate reader (Infinite M1000 from TECAN). GraphPad from Prism was used to plot OD450 vs. antibody concentration curve and to calculate the EC50 values.

[6] = biological target: T6, human B7-H4 expressed on cells (human, UniProt Q7Z7D3 25-282); test: flow cytometry, SK-BR-3 cells
T6 construct: Transfected CHO cells or tumor cell lines that carry hB7-H4; also called cellular hB7-H4
T6 sequence: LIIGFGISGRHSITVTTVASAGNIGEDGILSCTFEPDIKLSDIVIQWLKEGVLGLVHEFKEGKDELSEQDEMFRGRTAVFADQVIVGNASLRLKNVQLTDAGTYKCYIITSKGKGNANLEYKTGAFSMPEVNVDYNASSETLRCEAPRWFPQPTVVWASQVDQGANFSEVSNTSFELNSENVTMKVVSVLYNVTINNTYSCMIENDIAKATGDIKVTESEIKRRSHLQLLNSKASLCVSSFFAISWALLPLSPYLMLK

[7] = biological target: T7, mouse B7-H4 expressed on cells (mouse, UniProt Q7TSP5 25-257); test: flow cytometry, mB7-H4/CT26 cells
T7 construct: also called cellular mB7-H4; mB7-H4/CT26
T7 sequence: T5 sequence

human B7-H4-Fc [8] = biological target: T1, human B7-H4-Fc; test: ELISA on coated hB7-H4-Fc
Description: as §2

mouse B7-H4-Fc [9] = biological target: T3, mouse B7-H4-Fc; test: ELISA on coated mB7-H4-Fc
Description: as §2

mouse B7-H4-his = biological target: T8, mouse B7-H4-his (mouse, UniProt Q7TSP5 25-257); test: ELISA on coated mB7-H4-his
T8 construct: also called mB7-H4-his; mB7-H4-His; not shown: his tag
T8 sequence: T5 sequence
Description: as §2

[10] = biological target: T9, IgV domain of mouse B7-H4-Fc (mouse; human); test: ELISA, coated mB7-H4 IgV domain
T9 construct: also called mB7-H4 IgV domain

[11] = biological target: T10, IgC domain of human B7-H4-Fc (human); test: ELISA, coated hB7-H4 IgC domain
T10 construct: also called hB7-H4 IgC domain

[12] = biological target: T11, IgV domain of human B7-H4-Fc (human); test: ELISA on coated IgV domain of hB7-H4
T11 construct: also called hB7-H4 IgV domain

[13] = biological target: T9, IgV domain of mouse B7-H4-Fc; test: ELISA on coated IgV domain of mB7-H4
[14] = biological target: T5, mB7-H4 (soluble mouse B7-H4, construct …); test: SPR (Biacore); values equal to Table 11

T1 sequence (chain, as listed by the source): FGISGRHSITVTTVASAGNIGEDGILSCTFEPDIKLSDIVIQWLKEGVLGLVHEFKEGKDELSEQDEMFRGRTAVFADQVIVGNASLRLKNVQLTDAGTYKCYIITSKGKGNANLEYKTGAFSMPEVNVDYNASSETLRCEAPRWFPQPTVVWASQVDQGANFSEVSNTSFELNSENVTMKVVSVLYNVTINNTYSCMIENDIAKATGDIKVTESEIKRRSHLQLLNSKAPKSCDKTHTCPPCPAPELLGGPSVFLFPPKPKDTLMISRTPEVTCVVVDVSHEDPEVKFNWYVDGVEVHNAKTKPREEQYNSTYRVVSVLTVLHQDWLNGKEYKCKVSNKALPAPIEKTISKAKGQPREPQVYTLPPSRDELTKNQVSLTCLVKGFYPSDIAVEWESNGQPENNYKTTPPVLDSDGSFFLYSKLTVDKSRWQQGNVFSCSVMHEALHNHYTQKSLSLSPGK
T9 sequence (chain, as listed by the source): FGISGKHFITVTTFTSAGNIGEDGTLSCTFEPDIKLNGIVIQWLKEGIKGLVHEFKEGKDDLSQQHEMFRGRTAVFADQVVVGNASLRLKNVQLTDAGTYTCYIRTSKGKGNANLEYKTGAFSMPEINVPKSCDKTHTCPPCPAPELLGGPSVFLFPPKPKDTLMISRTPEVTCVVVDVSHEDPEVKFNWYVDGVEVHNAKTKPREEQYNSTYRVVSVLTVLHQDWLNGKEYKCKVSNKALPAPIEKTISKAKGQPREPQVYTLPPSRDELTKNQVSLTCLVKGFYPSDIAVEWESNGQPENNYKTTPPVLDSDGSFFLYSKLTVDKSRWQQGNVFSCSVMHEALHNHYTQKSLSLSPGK
T3 sequence (chain, as listed by the source): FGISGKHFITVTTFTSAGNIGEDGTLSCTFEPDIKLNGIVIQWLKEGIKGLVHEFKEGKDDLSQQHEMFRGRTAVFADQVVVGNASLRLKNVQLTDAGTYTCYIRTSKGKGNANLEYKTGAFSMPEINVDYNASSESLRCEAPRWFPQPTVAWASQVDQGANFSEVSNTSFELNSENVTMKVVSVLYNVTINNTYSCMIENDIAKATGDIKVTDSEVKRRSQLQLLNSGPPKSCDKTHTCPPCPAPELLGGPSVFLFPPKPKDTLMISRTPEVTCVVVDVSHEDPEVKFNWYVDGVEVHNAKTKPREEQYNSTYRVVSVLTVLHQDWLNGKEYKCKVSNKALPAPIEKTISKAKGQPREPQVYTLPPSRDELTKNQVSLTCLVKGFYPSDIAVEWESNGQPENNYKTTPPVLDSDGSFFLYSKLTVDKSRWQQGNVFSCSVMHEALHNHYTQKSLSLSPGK
T11 sequence (chain, as listed by the source): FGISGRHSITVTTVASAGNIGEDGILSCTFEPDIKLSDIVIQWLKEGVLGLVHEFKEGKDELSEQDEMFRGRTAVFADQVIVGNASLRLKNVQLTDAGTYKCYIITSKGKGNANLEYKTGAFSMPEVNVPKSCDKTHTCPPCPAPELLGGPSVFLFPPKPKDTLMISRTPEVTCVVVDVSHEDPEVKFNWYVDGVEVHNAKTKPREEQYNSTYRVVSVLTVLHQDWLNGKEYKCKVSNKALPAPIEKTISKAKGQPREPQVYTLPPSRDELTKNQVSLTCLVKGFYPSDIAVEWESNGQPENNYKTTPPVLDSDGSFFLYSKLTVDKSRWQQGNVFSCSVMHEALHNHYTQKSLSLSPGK
T10 sequence (chain, as listed by the source): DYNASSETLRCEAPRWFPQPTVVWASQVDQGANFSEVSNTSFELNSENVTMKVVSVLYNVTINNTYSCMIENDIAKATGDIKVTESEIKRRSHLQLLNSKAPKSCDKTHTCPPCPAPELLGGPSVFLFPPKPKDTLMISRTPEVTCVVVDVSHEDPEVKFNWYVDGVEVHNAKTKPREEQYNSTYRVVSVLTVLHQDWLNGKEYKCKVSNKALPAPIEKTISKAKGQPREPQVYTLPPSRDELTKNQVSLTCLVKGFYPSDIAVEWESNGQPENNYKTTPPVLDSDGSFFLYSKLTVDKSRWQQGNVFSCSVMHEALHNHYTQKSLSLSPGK

B1: 39A11/57G8 (antibody, human IgG1, V domains shown)
VH: EVQLLESGGGLVQPGGSLRLSCAASGFTFSSYGMHWVRQAPGKGLEWVASISSSSGYIYYADSVKGRFTISRDNSKNTLYLQMNSLRAEDTAVYYCARASSGMDVWGQGTTVTVSS
VL: DIQMTQSPSSLSASVGDRVTITCRASQSIRSYLNWYQQKPGKAPKLLIYYASSLQSGVPSRFSGSGSGTDFTLTISSLQPEDFATYYCQQYYSTPLTFGQGTKVEIK
notes: 39A11 VH with 57G8 VL
- Kd (human B7-H4-Fc [1]): 0.107 nM
- Kd (human B7-H4-his): 0.0355 nM
- Kd (mouse B7-H4-Fc [2]): 0.0518 nM
- EC50 [3]: 0.06 nM
- Kd [4]: 0.152 nM
- EC50 [5]: 0.051 nM
- EC50 [6]: 2.82 nM
- EC50 [7]: 7.82 nM
- EC50 (read off the curve) (human B7-H4-Fc [8]): ~0.08 nM
- EC50 (read off the curve) (mouse B7-H4-Fc [9]): ~0.08 nM
- EC50 (read off the curve) (mouse B7-H4-his): ~0.1 nM
- EC50 (read off the curve) [10]: ~0.2 nM
- binding result [11]: no binding (tested: log 1 nM (10 nM))
- EC50 (read off the curve) [12]: ~0.1 nM
- EC50 (read off the curve) [13]: ~0.07 nM
- Kd [14]: 0.152 nM

B2: Control antibody 1 (antibody 20502 described in US20190085080A1) (antibody, V domains shown)
VH: QLQLQESGPGLVKPSETLSLTCTVSGGSIKSGSYYWGWIRQPPGKGLEWIGNIYYSGSTYYNPSLRSRVTISVDTSKNQFSLKLSSVTAADTAVYYCAREGSYPNQFDPWGQGTLVTVSS
VL: EIVMTQSPATLSVSPGERATLSCRASQSVSSNLAWYQQKPGQAPRLLIYGASTRATGIPARFSGSGSGTEFTLTISSLQSEDFAVYYCQQYHSFPFTFGGGTKVEIK
notes: also called (+) control Ab1; (+) Ab1
- Kd (human B7-H4-Fc [1]): 0.45 nM
- Kd (human B7-H4-his): 0.11 nM
- Kd (mouse B7-H4-Fc [2]): 0.509 nM
- EC50 [3]: 0.106 nM
- Kd [4]: 0.499 nM
- EC50 [5]: 0.139 nM
- EC50 [6]: 2.64 nM
- EC50 [7]: 2.06 nM
- EC50 (read off the curve) (human B7-H4-Fc [8]): ~0.1 nM
- EC50 (read off the curve) (mouse B7-H4-Fc [9]): ~0.1 nM
- EC50 (read off the curve) (mouse B7-H4-his): ~0.2 nM
- EC50 (read off the curve) [10]: ~0.3 nM
- binding result [11]: no binding (tested: log 1 nM (10 nM))
- EC50 (read off the curve) [12]: ~0.2 nM
- EC50 (read off the curve) [13]: ~0.4 nM
- Kd [14]: 0.499 nM
